Experimental data published in patent CN116178550A (BEIJING DONGFANG BIOTECH CO LTD, dated 2023).

What was measured:
LILRB4抗原 (人LILRB4蛋白胞外段) [1] = molecular target: T1, LILRB4抗原 (人LILRB4蛋白胞外段) (human, UniProt Q8NHJ6 22-259); test: ELISA, LILRB4 coated 100 ng/well, Goat Anti-Mouse IgG-HRP
T1 construct: extracellular domain; also called 白细胞免疫球蛋白样受体亚家族B成员4

[2] = molecular target: T2, 人单核细胞白血病细胞(THP-1)表面LILRB4 (human, UniProt Q8NHJ6 22-448); test: cell-based or functional assay
LILRA4 [3] = molecular target: T3, LILRA4 (UniProt P59901 24-446, limits assumed); test: ELISA, protein coated 100 ng/well, MF-I at 50 μg/mL
T3 sequence (P59901 24-446 limits assumed): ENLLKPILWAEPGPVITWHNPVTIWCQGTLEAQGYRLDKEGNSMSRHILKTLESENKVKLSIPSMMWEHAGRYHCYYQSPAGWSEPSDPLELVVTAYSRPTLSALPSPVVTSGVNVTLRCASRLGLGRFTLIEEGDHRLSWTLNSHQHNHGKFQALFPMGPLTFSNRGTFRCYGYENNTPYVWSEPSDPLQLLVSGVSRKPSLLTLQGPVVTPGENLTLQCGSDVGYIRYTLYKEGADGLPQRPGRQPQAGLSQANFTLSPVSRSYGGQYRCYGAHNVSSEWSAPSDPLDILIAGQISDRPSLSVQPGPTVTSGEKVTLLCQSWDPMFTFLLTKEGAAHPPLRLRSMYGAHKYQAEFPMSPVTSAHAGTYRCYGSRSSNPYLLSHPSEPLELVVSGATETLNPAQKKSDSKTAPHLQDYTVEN

LILRB3 [4] = molecular target: T4, LILRB3 (UniProt O75022 24-443, limits assumed); test: as above
T4 sequence (O75022 24-443 limits assumed): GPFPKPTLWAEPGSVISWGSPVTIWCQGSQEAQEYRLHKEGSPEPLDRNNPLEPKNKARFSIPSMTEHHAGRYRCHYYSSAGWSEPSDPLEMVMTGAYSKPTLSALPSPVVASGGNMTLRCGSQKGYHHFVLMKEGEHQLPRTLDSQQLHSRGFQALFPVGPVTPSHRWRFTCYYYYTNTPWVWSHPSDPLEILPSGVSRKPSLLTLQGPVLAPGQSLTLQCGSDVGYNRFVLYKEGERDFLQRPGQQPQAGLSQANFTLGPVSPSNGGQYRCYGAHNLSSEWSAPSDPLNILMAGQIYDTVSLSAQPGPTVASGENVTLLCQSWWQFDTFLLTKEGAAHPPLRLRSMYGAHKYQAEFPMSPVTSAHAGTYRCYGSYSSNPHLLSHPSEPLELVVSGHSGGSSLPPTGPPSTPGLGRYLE

LILRA5 [5] = molecular target: T5, LILRA5 (UniProt A6NI73 42-268, limits assumed); test: as above
T5 sequence (A6NI73 42-268 limits assumed): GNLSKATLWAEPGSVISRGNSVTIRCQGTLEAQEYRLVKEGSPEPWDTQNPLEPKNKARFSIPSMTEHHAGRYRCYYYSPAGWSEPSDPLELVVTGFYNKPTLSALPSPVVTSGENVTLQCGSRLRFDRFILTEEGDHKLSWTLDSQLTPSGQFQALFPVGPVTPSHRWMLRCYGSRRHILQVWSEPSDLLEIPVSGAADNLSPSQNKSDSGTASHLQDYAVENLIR

LILRB5 [6] = molecular target: T6, LILRB5 (UniProt O75023 24-458, limits assumed); test: as above
T6 sequence (O75023 24-458 limits assumed): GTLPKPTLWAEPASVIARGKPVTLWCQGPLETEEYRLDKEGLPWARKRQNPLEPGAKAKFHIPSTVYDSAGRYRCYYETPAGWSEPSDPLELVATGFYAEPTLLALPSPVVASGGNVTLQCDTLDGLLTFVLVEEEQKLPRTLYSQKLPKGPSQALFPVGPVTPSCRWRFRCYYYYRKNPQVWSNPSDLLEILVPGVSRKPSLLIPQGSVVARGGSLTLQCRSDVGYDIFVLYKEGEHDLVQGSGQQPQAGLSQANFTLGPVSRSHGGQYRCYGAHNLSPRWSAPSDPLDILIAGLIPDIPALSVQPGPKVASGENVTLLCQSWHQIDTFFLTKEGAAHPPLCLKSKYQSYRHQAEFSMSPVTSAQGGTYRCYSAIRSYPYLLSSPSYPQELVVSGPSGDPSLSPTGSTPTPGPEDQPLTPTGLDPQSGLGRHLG

LILRB4抗原 (人LILRB4蛋白胞外段) [7] = molecular target: T1, LILRB4抗原 (人LILRB4蛋白胞外段); test: as above
LILRA2 [8] = molecular target: T7, LILRA2 (UniProt Q8N149 24-449, limits assumed); test: as above
T7 sequence (Q8N149 24-449 limits assumed): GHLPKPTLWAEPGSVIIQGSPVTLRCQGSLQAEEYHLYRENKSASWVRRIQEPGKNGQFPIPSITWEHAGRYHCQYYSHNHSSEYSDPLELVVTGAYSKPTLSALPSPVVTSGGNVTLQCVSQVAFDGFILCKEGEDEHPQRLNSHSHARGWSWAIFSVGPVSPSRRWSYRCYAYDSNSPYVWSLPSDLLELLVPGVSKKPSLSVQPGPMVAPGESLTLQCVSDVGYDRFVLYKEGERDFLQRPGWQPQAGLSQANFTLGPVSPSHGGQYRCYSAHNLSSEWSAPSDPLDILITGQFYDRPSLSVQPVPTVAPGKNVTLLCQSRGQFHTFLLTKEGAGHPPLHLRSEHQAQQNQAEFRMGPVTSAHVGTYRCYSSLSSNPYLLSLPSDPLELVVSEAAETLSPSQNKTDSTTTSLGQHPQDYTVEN

LILRB2 [9] = molecular target: T8, LILRB2 (UniProt Q8N423 22-460, limits assumed); test: as above
T8 sequence (Q8N423 22-460 limits assumed): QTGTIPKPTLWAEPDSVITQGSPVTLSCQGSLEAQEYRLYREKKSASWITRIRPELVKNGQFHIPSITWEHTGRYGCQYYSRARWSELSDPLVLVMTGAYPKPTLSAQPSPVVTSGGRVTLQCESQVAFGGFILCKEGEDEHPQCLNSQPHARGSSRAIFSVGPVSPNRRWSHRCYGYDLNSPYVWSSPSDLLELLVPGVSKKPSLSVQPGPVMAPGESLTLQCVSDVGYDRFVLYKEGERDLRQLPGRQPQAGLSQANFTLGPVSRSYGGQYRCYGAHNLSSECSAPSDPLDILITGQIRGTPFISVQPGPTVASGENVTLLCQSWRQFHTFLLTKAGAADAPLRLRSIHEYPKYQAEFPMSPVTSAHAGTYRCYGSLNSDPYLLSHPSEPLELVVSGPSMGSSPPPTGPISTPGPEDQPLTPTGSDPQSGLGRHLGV

LILRA3 [10] = molecular target: T9, LILRA3 (UniProt Q8N6C8 24-439); test: as above
T9 sequence (Q8N6C8 24-439 limits assumed): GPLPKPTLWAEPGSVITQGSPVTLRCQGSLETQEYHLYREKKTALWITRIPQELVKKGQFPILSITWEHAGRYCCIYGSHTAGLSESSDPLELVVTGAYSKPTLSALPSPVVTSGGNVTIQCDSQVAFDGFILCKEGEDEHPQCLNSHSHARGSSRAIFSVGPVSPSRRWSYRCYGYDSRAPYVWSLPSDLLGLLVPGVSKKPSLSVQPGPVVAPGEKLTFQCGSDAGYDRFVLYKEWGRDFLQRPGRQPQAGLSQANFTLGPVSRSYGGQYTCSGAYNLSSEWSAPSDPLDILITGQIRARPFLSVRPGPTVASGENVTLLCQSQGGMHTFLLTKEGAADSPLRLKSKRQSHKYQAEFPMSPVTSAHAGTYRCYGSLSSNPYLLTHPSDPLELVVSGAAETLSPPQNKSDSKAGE

LILRB1 [11] = molecular target: T10, LILRB1 (UniProt Q8NHL6 24-461, limits assumed); test: as above
T10 sequence (Q8NHL6 24-461 limits assumed): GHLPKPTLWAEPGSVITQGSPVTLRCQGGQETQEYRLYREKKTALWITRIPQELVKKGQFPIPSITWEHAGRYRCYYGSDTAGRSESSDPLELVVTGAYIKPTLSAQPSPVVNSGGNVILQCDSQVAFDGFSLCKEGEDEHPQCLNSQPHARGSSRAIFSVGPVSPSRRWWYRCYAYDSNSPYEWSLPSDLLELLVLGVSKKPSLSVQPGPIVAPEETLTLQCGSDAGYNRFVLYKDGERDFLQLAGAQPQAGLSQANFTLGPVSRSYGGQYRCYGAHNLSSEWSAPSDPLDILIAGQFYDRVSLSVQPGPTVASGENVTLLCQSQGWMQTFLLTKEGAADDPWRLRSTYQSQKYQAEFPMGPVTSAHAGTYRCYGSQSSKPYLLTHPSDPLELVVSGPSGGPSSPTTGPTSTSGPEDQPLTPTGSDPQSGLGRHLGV

LILRA1 [12] = molecular target: T11, LILRA1 (UniProt O75019 17-461, limits assumed); test: as above
T11 sequence (O75019 17-461 limits assumed): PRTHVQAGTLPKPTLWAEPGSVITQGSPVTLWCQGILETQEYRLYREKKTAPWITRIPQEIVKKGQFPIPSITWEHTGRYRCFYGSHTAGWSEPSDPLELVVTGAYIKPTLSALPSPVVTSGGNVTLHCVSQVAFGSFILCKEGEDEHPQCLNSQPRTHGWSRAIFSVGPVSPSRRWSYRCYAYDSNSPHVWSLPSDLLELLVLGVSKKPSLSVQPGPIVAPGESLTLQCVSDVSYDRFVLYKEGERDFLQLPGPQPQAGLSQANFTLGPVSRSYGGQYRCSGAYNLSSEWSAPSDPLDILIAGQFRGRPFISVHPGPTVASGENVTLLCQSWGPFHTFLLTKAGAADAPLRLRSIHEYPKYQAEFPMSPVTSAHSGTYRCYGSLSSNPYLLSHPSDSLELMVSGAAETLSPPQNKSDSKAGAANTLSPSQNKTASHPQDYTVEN

LILRA6 [13] = molecular target: T12, LILRA6 (UniProt Q6PI73 24-447, limits assumed); test: as above
T12 sequence (Q6PI73 24-447 limits assumed): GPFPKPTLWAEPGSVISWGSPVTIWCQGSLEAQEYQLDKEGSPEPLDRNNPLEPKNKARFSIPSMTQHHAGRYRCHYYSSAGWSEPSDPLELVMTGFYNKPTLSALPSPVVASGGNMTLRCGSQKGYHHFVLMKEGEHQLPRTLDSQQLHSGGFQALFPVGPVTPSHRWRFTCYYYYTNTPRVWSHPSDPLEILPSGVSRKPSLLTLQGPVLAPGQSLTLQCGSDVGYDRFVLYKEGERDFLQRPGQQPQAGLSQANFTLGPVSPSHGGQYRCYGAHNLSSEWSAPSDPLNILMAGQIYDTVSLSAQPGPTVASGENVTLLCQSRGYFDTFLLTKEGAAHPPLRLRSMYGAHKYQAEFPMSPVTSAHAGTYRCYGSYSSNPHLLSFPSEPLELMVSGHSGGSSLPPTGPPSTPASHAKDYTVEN

[14] = molecular target: T2, 人单核细胞白血病细胞(THP-1)表面LILRB4; test: flow cytometry on THP-1 cells, competition with 0.4 μg/mL FITC-labelled ApoE
LILRA4 [15] = molecular target: T3, LILRA4; test: ELISA, protein coated 100 ng/well, Goat Anti-Mouse IgG-HRP
LILRB3 [16] = molecular target: T4, LILRB3; test: as above
LILRA5 [17] = molecular target: T5, LILRA5; test: as above
LILRB5 [18] = molecular target: T6, LILRB5; test: as above
LILRA2 [19] = molecular target: T7, LILRA2; test: as above
LILRB2 [20] = molecular target: T8, LILRB2; test: as above
LILRA3 [21] = molecular target: T9, LILRA3; test: as above
LILRB1 [22] = molecular target: T10, LILRB1; test: as above
LILRA1 [23] = molecular target: T11, LILRA1; test: as above
LILRA6 [24] = molecular target: T12, LILRA6; test: as above

- EC50 (LILRB4抗原 (人LILRB4蛋白胞外段) [1]): 0.406 µg/mL
- IC50(μg/mL), 抑制THP-1分泌ARG1 (arginase activity in the supernatant, with 0.5 μg/mL ApoE) [2]: 367 µg/mL
- OD 450nm/630nm (LILRA4 [3]): 0.014
- OD 450nm/630nm (LILRB3 [4]): 0.18
- OD 450nm/630nm (LILRA5 [5]): 0.012
- OD 450nm/630nm (LILRB5 [6]): 0.012
- OD 450nm/630nm (LILRB4抗原 (人LILRB4蛋白胞外段) [7]): 2.3
- OD 450nm/630nm (LILRA2 [8]): 0.036
- OD 450nm/630nm (LILRB2 [9]): 0.213
- OD 450nm/630nm (LILRA3 [10]): 0.064
- OD 450nm/630nm (LILRB1 [11]): 0.123
- OD 450nm/630nm (LILRA1 [12]): 0.111
- OD 450nm/630nm (LILRA6 [13]): 0.112
- IC50 [14]: 10.5 µg/mL
- binding result (LILRA4 [15]): no binding (tested: 50μg/mL)
- binding result (LILRB3 [16]): no binding (tested: 50μg/mL)
- binding result (LILRA5 [17]): no binding (tested: 50μg/mL)
- binding result (LILRB5 [18]): no binding (tested: 50μg/mL)
- binding result (LILRA2 [19]): no binding (tested: 50μg/mL)
- binding result (LILRB2 [20]): no binding (tested: 50μg/mL)
- binding result (LILRA3 [21]): no binding (tested: 50μg/mL)
- binding result (LILRB1 [22]): no binding (tested: 50μg/mL)
- binding result (LILRA1 [23]): no binding (tested: 50μg/mL)
- binding result (LILRA6 [24]): no binding (tested: 50μg/mL)
B1: 抗LILRB4单克隆抗体MF-I (full antibody, mouse IgG1 heavy chain constant region and mouse Ck light chain constant region) (antibody, V domains shown)
VH: QVQLEQSGAELVKPGASVKLSCKASGYTFTNYWMHWVKQRHGQGLEWIGEINPSNGRTNYNEKFKTKATLTVDKSSSTAYMQLSSLTSEDSAVYYCAKNYRYDDWAMDYWGQGTSVTVSS
VL: DIVLTQSPSSMYASLGERVTITCKASEDINSYLSWFQQKPGKSPKTLIYRANRLVDGVPSRFSGSGSGQDYSLTISSLEYEDMGIYYCLQYDEIPPTFGAGTKLELKA
notes: also called MF-Ⅰ
